Measured values: paper PMC6817910, “Aspartate/asparagine-β-hydroxylase crystal structures reveal an unexpected epidermal growth factor-like domain substrate disulfide pattern” (Nature Communications, 2019)
Bridge positions count the residues as written; N and C are the ends. Ends that are not written are not given here.

T1: N-terminally His6-tagged AspH_(315–758) (human aspartate/asparagine-β-hydroxylase, TPR and oxygenase domains) (human, UniProt Q12797 315-758)
T1 construct: human aspartate/asparagine-β-hydroxylase (AspH), residues 315-758: TPR domain (aa 330-555), hinge-loop region (aa 556-577) and 2OG oxygenase domain; pET-28a(+) construct; crystallised with Mn(II) in place of Fe(II) and N-oxalylglycine (NOG); also called AspH-TPR-Ox; His6-AspH_(315–758); not shown: His6, N-terminal, kept
T1 sequence (looked up): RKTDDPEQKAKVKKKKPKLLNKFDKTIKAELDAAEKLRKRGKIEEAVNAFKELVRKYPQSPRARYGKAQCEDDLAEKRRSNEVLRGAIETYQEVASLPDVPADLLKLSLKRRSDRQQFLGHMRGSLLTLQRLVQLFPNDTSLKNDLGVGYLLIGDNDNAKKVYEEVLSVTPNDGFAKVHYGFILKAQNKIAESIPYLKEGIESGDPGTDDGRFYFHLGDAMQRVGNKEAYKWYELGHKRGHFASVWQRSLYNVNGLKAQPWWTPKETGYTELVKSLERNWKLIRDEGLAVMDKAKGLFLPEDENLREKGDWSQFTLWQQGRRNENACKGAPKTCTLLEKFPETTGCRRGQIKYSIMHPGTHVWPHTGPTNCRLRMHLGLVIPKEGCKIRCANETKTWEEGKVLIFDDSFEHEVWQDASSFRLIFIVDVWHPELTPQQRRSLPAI


Molecular target: T1, N-terminally His6-tagged AspH_(315–758) …
Test: crystal structure; N-terminally His6-tagged AspH_(315–758) (18 mg/mL in 50 mM HEPES, pH 7.5) mixed with 1 mM MnCl2, 2 mM N-oxalylglycine and the AspH-substrate; co-crystallised by vapour diffusion at 4 °C in sitting drops
Conditions: both partners purified

| binding result | Binder |
| --- | --- |
| binds | DGDQCETSPCQNQGKCKDGLGEYTCTCLEGFEGKNCELF (peptide, UniProt P00742 86-124, looked up, disulfide 27-36; not fully specified (C-terminus); also: mixture of canonical (Cys1–3, 2–4) and non-canonical (Cys1–2, 3–4) isomers, crystal: Cys101–Cys110, human coagulation factor X, first EGF-like domain, aa 86-124; The peptide batch is a mixture of disulfide isomers; also called NC_(39mer) peptide (the non-canonical disulfide isomer seen in the crystal); 39-residue fragment of hFX EGF1) [hFX EGF1_(39mer), N-terminal EGF-like domain of human coagulation factor X (aa 86–124)] |
| binds | DGDQSETSPSQNQGKCKDGLGEYTCTSLEGFEGKNSELF (peptide, UniProt P00742 86-124, looked up, disulfide 16-25, human coagulation factor X, first EGF-like domain, aa 86-124, with Cys90, 95, 112 and 121 substituted for Ser; also called NC-Ser_(39mer); NC-4Ser_(39mer) peptide; source: synthetic peptide (GL Biochem (Shanghai) Ltd, single disulfide isomer)) |
| binds | DGDQCETSPCQNQGKCKDGLGEYTCT (peptide, UniProt P00742 86-111, looked up, disulfide 5-10, 16-25, human coagulation factor X, first EGF-like domain, aa 86-111, lacking the Cys5–6 disulfide-forming residues; also called NC_(26mer) peptide; source: synthetic peptide (GL Biochem (Shanghai) Ltd, orthogonal cysteine protection, single disulfide isomer)) |
